Assay in all cases: cell-based or functional assay
Experiment [1] concerns the target bovine Flk-1 (VEGFR-2), endogenous on bovine aortic endothelial cells (BAEC) (bovine).
The target of experiment [2] is T1, bovine Flt-1 (VEGFR-1), endogenous on bovine aortic endothelial cells (BAEC) (bovine).
T1 sequence: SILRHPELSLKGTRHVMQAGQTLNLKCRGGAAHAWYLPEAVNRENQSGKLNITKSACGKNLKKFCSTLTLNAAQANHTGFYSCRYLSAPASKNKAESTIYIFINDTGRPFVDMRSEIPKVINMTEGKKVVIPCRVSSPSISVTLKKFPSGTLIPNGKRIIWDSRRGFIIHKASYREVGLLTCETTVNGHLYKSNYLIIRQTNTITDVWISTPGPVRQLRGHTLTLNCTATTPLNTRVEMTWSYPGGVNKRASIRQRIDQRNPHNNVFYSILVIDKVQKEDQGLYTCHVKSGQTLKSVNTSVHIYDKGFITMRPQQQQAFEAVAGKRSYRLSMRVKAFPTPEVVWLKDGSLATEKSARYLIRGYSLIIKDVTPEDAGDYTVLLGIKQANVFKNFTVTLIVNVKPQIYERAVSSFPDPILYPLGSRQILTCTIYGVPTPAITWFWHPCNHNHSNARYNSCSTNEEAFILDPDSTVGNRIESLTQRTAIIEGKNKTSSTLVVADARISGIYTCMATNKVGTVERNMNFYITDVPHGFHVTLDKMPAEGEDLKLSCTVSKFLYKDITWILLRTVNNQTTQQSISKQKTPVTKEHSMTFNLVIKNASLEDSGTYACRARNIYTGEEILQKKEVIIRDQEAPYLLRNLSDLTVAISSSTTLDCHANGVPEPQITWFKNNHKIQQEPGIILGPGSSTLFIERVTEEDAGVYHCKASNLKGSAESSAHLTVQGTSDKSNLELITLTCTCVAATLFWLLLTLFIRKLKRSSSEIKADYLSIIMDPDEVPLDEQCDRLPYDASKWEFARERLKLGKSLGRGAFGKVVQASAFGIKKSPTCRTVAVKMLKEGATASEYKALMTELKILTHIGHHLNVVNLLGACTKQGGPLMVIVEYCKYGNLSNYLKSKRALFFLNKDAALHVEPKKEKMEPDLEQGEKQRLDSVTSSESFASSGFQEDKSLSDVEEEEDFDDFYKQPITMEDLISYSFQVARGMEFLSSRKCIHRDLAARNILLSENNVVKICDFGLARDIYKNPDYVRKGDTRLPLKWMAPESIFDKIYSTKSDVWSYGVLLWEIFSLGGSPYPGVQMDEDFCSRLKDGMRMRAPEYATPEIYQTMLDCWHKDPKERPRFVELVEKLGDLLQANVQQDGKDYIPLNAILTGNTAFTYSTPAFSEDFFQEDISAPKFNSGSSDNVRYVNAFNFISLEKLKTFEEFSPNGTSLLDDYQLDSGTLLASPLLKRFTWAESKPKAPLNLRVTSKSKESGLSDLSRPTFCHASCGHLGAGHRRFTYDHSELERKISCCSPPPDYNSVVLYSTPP

Experiment [3] shares this target. The source holds these as a separate data set.

Consider two molecules from patent US20030186920A1.

In experiment [1], “human recombinant vascular growth factor, VEGF165 (PeproTech Inc.) (from UniProt P15692 27-191) (ligand)” returned a BAEC migration (modified Boyden chamber, 5 h), VEGF 2.5x10^-10 M (% increase over PBS-stimulated cells) of 83; a BAEC migration (modified Boyden chamber, 5 h), VEGF 10^-9 M (% increase over PBS-stimulated cells) of 130; a BAEC migration (modified Boyden chamber, 5 h), VEGF 10^-10 M (% increase over PBS-stimulated cells) of 46; a BAEC proliferation (cell count at 72 h), VEGF 2.5x10^-10 M (% increase over DMEM/1% FBS) of 219. In experiment [1], the BAEC proliferation (cell count at 72 h), VEGF 10^-10 M (% increase over DMEM/1% FBS) was found to be 183; the BAEC proliferation (cell count at 72 h), VEGF 10^-11 M (% increase over DMEM/1% FBS) turned out to be 62; the Flk-1 phosphorylation in BAEC stimulated with VEGF (10^-9 M), anti-phosphotyrosine Western blot of immunoprecipitated receptor (fold over PBS-treated cells) stood at 13.2; the PAF synthesis by BAEC (3H-acetate incorporation, 15 min), VEGF 10^-8 M (fold over PBS-treated cells) was determined as 35.9. In experiment [1], the PAF synthesis by BAEC (3H-acetate incorporation, 15 min), VEGF 10^-9 M (fold over PBS-treated cells) is 20.4 and the PAF synthesis by BAEC (3H-acetate incorporation, 15 min), VEGF 10^-10 M (fold over PBS-treated cells) worked out at 7.2. In experiment [2], the Flt-1 phosphorylation in BAEC stimulated with VEGF (10^-9 M), anti-phosphotyrosine Western blot of immunoprecipitated receptor (fold over PBS-treated cells) was determined as 1.5.

B1: human placenta growth factor, PlGF152 (R & D Systems) (ligand, UniProt P49763-3 19-170, looked up)
chain: LPAVPPQQWALSAGNGSSEVEVVPFQEVWGRSYCRALERLVDVVSEYPSEVEHMFSPSCVSLLRCTGCCGDENLHCVPVETANVTMQLLKIRSGDRPSYVELTFSQHVRCECRPLREKMKPERRRPKGRGKRRREKQRPTDCHLCGDAVPRR
B1 yielded a PAF synthesis by BAEC (3H-acetate incorporation, 15 min), PlGF 10^-8 M (% increase over PBS-treated cells) in experiment [3] of 67.
